How the values were obtained:
[1] = tested on: cisplatin- or syrup of ipecac-induced emesis; settings: 3 mg/kg i.p.; cited from earlier work
[2] = target: the molecule itself; test: SDS PAGE of refolded synthetic peptide; self-association
strips of ileum = test: guinea pig ileum organ bath contractility; settings: isolated ileum strips
Description: In another model, male Hartley Guinea pigs at six weeks of age weighing approximately 0.5 kg are euthanized by carbon monoxide. Intestinal tissue is harvested as follows: 2-3 cm longitudinal sections of ileum 10 cm rostral of the cecum, and 2-3 cm longitudinal sections of duodenum, jejunum, and proximal and distal colon.
Tissue is washed in Krebs Ringer's Bicarbonate buffer containing 118.2 mM NaCl, 4.6 mM KCl, 1.2 mm MgS04, 24.8 mM NaHC03, 1.2 mM KH2P04, 2.5 mM CaCl2 and 10 mM glucose. […] Isometric contractions are measured with a force displacement transducer and recorded on a chart recorder using Po-ne-mah Physiology Platform Software. […]
Varying doses of Zsig98 from 1-400 ng/ml are tested for activity on strips of ileum. Muscle contractions are detected immediately after adding Zsig98 protein and are recorded at concentrations as low as 1 ng/ml or 100 picomolar. The EC 50 of this response is measured. […]
In another model, male Hartley Guinea pigs at six weeks of age weighing approximately 0.5 kg are euthanized by carbon monoxide. […] Isometric contractions are measured with a force displacement transducer and recorded on a chart recorder using Po-ne-mah Physiology Platform Software. […] Muscle contractions are detected immediately after adding Zsig98 protein and are recorded at concentrations as low as 1 ng/ml or 100 picomolar. The EC 50 of this response is measured. […]

In the case of `COc1ccccc1CN[C@H]1CCCN[C@H]1c1ccccc1` (relative stereo) [(.+−.) cis-3-(2-methoxybenzylamino)-2-phenyl piperidine], the anti-emetic activity [1] is given as “exhibited anti-emetic activity”.

B1: Mature Zsig98, synthetic, made by native ligation and refolded (PEP05014 and PEP05015) (peptide)
chain: EPAGSAVPAQSRPCVDCHAFEFMQRALQDLRKTACSLDARTETLLLQAERRALCACWPAGH
notes: also called zsig98 peptide; synthetic zsig98
B1: binds [2].

B2: Zsig98: secreted polypeptide; mature form amino acids 35 to 95 of SEQ ID NO:2 (SEQ ID NO:18) (protein, listed as Homo sapiens)
chain: B1 chain
modifications: not fully specified
For B2, the “activity in the presence of 5HT” value (strips of ileum) was “a secondary contraction is observed”.

Source: patent US20060258586A1, “Compositions and uses of secreted polypeptide, Zsig98” (priority 2005, published 2006)
